Measured values reported in patent US20160194394A1 (GOVERNING COUNCIL OF THE UNIVERSITY OF TORONTO, published 2016).

Legend:
[1] = target: T1, FZD7 receptor expressed on cells (full-length) (UniProt O75084 33-574, limits assumed); assay: flow cytometry, 200 nM Fab, MDA MB 231 [cont'd]
T1 construct: whole, on cells; MDA MB 231 cells may carry other Frizzled receptors too; also called full-length FZD7 receptor; endogenous receptor on MDA MB 231 cells
Summary of the method: (§1)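 EDTA-harvested MDA MB 231 cells, either FZD7-overexpressing or with endogenous receptor, were blocked in 2% FBS/PBS and stained with Fab for 30 min on ice. Detection used anti-F(ab′)₂-APC (1:1000, 15 min on ice), then 1% paraformaldehyde fixation and flow cytometry. Values are percent of cells in positive gates.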

[2] = target: T2, Fc control protein; assay: ELISA, 10ug/ml (200nM) Fab [cont'd]
T2 construct: also called Fc protein; control Fc protein
Summary of the method: (§2)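 Plates coated with 2 ug/ml FZD7-Fc or Fc protein were probed with bacterially expressed purified Fabs for 1 h at room temperature in 0.5% BSA/0.05% Tween20/PBS. Bound Fab detected with anti-FLAG-HRP for 45 min, developed with TMB and acid stop, and read as absorbance at 450 nm; n.t. = not tested.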

[3] = target: T3, recombinant Frizzled receptor 7 (FZD7) cysteine-rich domain (CRD) fused to the Fc region of human IgG (human, UniProt O75084 33-185); assay: ELISA, 10ug/ml (200nM) Fab [cont'd]
Summary of the method: as §2

[4] = target: T1, FZD7 receptor expressed on cells …; assay: flow cytometry, 200 nM Fab, FZD7 over-expression line (MDA MB 231) [cont'd]
Summary of the method: as §1

[5] = target: T2, Fc control protein; assay: ELISA, 1ug/ml (20nM) Fab [cont'd]
Summary of the method: as §2

[6] = target: T3, recombinant Frizzled receptor 7 (FZD7) …; assay: ELISA, 1ug/ml (20nM) Fab [cont'd]
Summary of the method: as §2

B1: G9 (Fab)
light: DIQMTQSPSSLSASVGDRVTITCRASQSVSSAVAWYQQKPGKAPKLLIYSASSLYSGVPSRFSGSRSGTDFTLTISSLQPEDFATYYCQQYYYSSPITFGQGTKVEIKRTVAAPSVFIFPPSDSQLKSGTASVVCLLNNFYPREAKVQWKVDNALQSGNSQESVTEQDSKDSTYSLSSTLTLSKADYEKHKVYACEVTHQGLSSPVTKSFNRGECGGS
heavy: EVQLVESGGGLVQPGGSLRLSCAASGFNISYYYIHWVRQAPGKGLEWVAYISPSSGYTSYADSVKGRFTISADTSKNTAYLQMNSLRAEDTAVYYCARGYPVYSWVWSFGAFDYWGQGTLVTVSSASTKGPSVFPLAPSSKSTSGGTAALGCLVKDYFPEPVTVSWNSGALTSGVHTFPAVLQSSGLYSLSSVVTVPSSSLGTQTYICNVNHKPSNTKVDKKVEPKSC
notes: selection round 3; also called Fzd7-R3-G9
In the case of B1, the “% population within the positive gate” value [1] is reported as 6.1%, the “OD 450” value [2] is reported as 0.16 and the “OD 450” value [3] is reported as 3.21. The “% population within the positive gate” value [4] was 84.7%, the “OD 450” value [5] was 0.06 and the “OD 450” value [6] was 3.12.
